Measured values: publication PMC2190708 (Nucleic Acids Research, 2007)

B1: λ-Pase (Escherichia phage Lambda) (protein)
chain: MRYYEKIDGSKYRNIWVVGDLHGCYTNLMNKLDTIGFDNKKDLLISVGDLVDRGAENVECLELITFPWFRAVRGNHEQMMIDGLSERGNVNHWLLNGGGWFFNLDYDKEILAKALAHKADELPLIIELVSKDKKYVICHADYPFDEYEFGKPVDHQQVIWNRERISNSQNGIVKEIKGADTFIFGHTPAVKPLKFANQMYIDTGAVFCGNLTLIQVQGEGA

Columns and labels:
CthPnkp = biological target: T1, CthPnkp (Acetivibrio thermocellus, UniProt A3DJ38); experiment: p-nitrophenol release; assay type: biochemical; conditions: Tris-HCl pH 7.0, 0.5 mM MnCl2, data not shown
T1 sequence (A3DJ38 1-870): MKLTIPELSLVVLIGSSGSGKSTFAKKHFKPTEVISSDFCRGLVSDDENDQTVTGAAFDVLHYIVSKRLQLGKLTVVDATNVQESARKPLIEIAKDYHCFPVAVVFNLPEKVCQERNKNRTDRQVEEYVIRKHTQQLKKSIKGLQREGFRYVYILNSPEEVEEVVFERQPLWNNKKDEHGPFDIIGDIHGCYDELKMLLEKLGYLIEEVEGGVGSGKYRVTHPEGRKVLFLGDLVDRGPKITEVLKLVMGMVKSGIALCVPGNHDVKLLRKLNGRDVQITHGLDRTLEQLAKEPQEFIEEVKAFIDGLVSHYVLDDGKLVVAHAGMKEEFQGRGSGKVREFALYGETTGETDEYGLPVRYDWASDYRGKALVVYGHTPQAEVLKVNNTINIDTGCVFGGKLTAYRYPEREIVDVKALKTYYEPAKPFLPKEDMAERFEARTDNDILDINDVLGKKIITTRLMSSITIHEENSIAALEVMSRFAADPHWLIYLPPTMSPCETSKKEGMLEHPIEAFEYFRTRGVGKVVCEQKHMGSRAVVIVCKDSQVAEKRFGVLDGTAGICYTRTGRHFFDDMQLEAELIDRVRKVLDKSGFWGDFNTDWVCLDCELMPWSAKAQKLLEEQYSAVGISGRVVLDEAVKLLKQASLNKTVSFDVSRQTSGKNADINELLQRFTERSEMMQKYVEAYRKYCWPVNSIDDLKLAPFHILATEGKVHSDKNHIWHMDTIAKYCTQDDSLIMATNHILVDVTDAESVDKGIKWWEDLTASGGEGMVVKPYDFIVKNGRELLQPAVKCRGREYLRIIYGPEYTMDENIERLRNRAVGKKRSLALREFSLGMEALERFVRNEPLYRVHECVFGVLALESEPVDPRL

purified protein [1] = substrate: O=[N+]([O-])c1ccc(OP(=O)(O)Oc2ccc([N+](=O)[O-])cc2)cc1; experiment: purified protein; conditions: Mn2+; exact conditions of titration not given, data not shown
purified protein [2] = substrate: O=[N+]([O-])c1ccc(OP(=O)(O)O)cc1; experiment: purified protein; conditions: Mn2+; exact conditions of titration not given, data not shown

Molecule	Km (CthPnkp) [mM]	Km (purified protein [1]) [mM]	Km (purified protein [2]) [mM]
O=[N+]([O-])c1ccc(OP(=O)(O)c2ccccc2)cc1 [compound ②, p-nitrophenyl phenylphosphonate]	67	–	–
B1	–	10 ± 1.6	5.0 ± 0.1
